Experimental data from the supplement of paper PMC11780869.

Tested on: Bacillus subtilis
Experiment: cleaved RNA product abundance (RNA/gDNA barcode ratio) relative to median wild-type variant (ratio to wild type); higher = more accumulation of the downstream cleavage product
Details: cleavage site: cggR-gapA (positions -7 to +36 mutated)
Method in brief: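 In LB at 37°C, B. subtilis cultures went from OD600 0.0003 to 0.3. Their chromosomes held barcoded reporter mRNAs, truncated aprE or tetM, with RNase Y cleavage-site windows mutagenized via oligos at a 9% error rate. Cleaved RNA, chosen by gel, was reverse transcribed and barcode-sequenced alongside genomic DNA barcodes with UMI collapsing, giving a per-construct RNA:gDNA ratio scaled to the median construct with the unmutated site. This scaled ratio is termed cleaved product abundance.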

[1] = experiment (reporter, strain, medium): exp 4a: truncated aprE reporter, strain BJT201 with 2% xylose (RNase J1 expressed)
[2] = experiment (reporter, strain, medium): exp 2b: truncated aprE reporter, strain BJT200

| Sequence | cleaved RNA product abundance [1] | cleaved RNA product abundance [2] | cleaved RNA product abundance (experiment (reporter, strain, medium): exp 6: tetM reporter, strain 168) |
| --- | --- | --- | --- |
| ACAGACGAAGGAGCCGCAAAGAAGTTATTAAGTGATGAATAATCCCTCAATATAAATAACTCTCACTTATTTAAA | 0.119 | – | – |
| ACAGACGAAGGAGCCGCAAAGAAGTTATTAAGTGATGAATAATCCCTCAATATAAATACCTCTCACTTATTTAAA | 0.105 | – | – |
| ACAGACGAAGGAGCCGCAAAGAAGTTATTAAGTGATGAATAATCCCTCAATATAAATATCTCTCACTTATTTAAA | 0.126 | 0.109 | 0.127 |
| ACAGACGAAGGAGCCGCAAAGAAGTTATTAAGTGATGAATAATCCCTCAATATAAATCTCTCTCACTTATTTAAA | – | 0.116 | – |
| ACAGACGAAGGAGCCGCAAAGAAGTTATTAAGTGATGAATAATCCCTCAATATAACTATCTCTCACTTATTTAAA | – | 0.146 | – |
| ACAGACGAAGGAGCCGCAAAGAAGTTATTAAGTGATGAATAATCCCTCAATATAATTATCTCTCACTTATTTAAA | 0.0685 | – | – |
| ACAGACGAAGGAGCCGCAAAGAAGTTATTAAGTGATGAATAATCCCTCAATATACATATCTCTCACTTATTTAAA | 0.19 | 0.0962 | – |
| ACAGACGAAGGAGCCGCAAAGAAGTTATTAAGTGATGAATAATCCCTCAATATATATATCTCTCACTTATTTAAA | 0.107 | 0.115 | – |
| ACAGACGAAGGAGCCGCAAAGAAGTTATTAAGTGATGAATAATCCCTCAATCTAAATATCTCTCACTTATTTAAA | 0.0609 | – | – |
| ACAGACGAAGGAGCCGCAAAGAAGTTATTAAGTGATGAATAATCCCTCAATTTAAATATCTCTCACTTATTTAAA | 0.0598 | 0.0957 | – |
| ACAGACGAAGGAGCCGCAAAGAAGTTATTAAGTGATGAATAATCCCTCATTATAAATATCTCTCACTTATTTAAA | 0.151 | 0.0978 | – |
| ACAGACGAAGGAGCCGCAAAGAAGTTATTAAGTGATGAATAATCCCTCCATATAAATATCTCTCACTTATTTAAA | 0.104 | – | – |
| ACAGACGAAGGAGCCGCAAAGAAGTTATTAAGTGATGAATAATCCCTCTATATAAATATCTCTCACTTATTTAAA | 0.128 | 0.109 | – |
| ACAGACGAAGGAGCCGCAAAGAAGTTATTAAGTGATGAATAATCCCTGAATATAAATATCTCTCACTTATTTAAA | 0.0547 | 0.0871 | – |
| ACAGACGAAGGAGCCGCAAAGAAGTTATTAAGTGATGAATAATCCCTTAATATAAATATCTCTCACTTATTTAAA | 0.388 | 0.6 | – |
| ACAGACGAAGGAGCCGCAAAGAAGTTATTAAGTGATGAATAATCCGTCAATATAAATATCTCTCACTTATTTAAA | 0.0842 | 0.103 | – |
| ACAGACGAAGGAGCCGCAAAGAAGTTATTAAGTGATGAATAATCCTTCAATATAAATATCTCTCACTTATTTAAA | 0.145 | 0.112 | – |
| ACAGACGAAGGAGCCGCAAAGAAGTTATTAAGTGATGAATAATCGCTCAATATAAATATCTCTCACTTATTTAAA | – | 0.522 | – |
| ACAGACGAAGGAGCCGCAAAGAAGTTATTAAGTGATGAATAATCTCTCAATATAAATATCTCTCACTTATTTAAA | 0.172 | 0.113 | – |

| Sequence | cleaved RNA product abundance [1] | cleaved RNA product abundance [2] | cleaved RNA product abundance (experiment (reporter, strain, medium): exp 6: tetM reporter, strain 168) |
| --- | --- | --- | --- |
| ACAGACGAAGGAGCCGCAAAGAAGTTATTAAGTGATGAATAATGCCTCAATATAAATATCTCTCACTTATTTAAA | – | 0.1 | – |
| ACAGACGAAGGAGCCGCAAAGAAGTTATTAAGTGATGAATAATTCCTCAATATAAATATCTCTCACTTATTTAAA | 0.14 | 0.0685 | – |
| ACAGACGAAGGAGCCGCAAAGAAGTTATTAAGTGATGAATACTCCCTCAATATAAATATCTCTCACTTATTTAAA | 0.181 | – | – |
| ACAGACGAAGGAGCCGCAAAGAAGTTATTAAGTGATGAATAGTCCCTCAATATAAATATCTCTCACTTATTTAAA | 0.14 | – | – |
| ACAGACGAAGGAGCCGCAAAGAAGTTATTAAGTGATGAATATTCCCTAAATATAAATATCTCTCACTTATTTAAA | – | 0.115 | – |
| ACAGACGAAGGAGCCGCAAAGAAGTTATTAAGTGATGAATATTCCCTCAATATAAATATCTCTCACTTATTTAAA | 0.102 | – | – |
| ACAGACGAAGGAGCCGCAAAGAAGTTATTAAGTGATGAATCATCCCTCAATATAAATATCTCTCACTTATTTAAA | 0.147 | 0.125 | – |
| ACAGACGAAGGAGCCGCAAAGAAGTTATTAAGTGATGAATTATCCCTCAATATAAATATCTCTCACTTATTTAAA | 0.249 | 0.104 | – |
| ACAGACGAAGGAGCCGCAAAGAAGTTATTAAGTGATGACTAATCCCTCAATATAAATATCTCTCACTTATTTAAA | 0.111 | 0.081 | – |
| ACAGACGAAGGAGCCGCAAAGAAGTTATTAAGTGATGATTAATCCCTCAATATAAATATCTCTCACTTATTTAAA | – | 0.112 | – |
| ACAGACGAAGGAGCCGCAAAGAAGTTATTAAGTGATGTATAATCCCTCAATATAAATATCTCTCACTTATTTAAA | 0.144 | 0.088 | – |
| ACAGACGAAGGAGCCGCAAAGAAGTTATTAAGTGATTAATAATCCCTCAATATAAATATCTCTCACTTATTTAAA | 0.0979 | 0.112 | – |
| ACAGACGAAGGAGCCGCAAAGAAGTTATTAAGTGGTGAATAATCCCTCAATATAAATATCTCTCACTTATTTAAA | 0.103 | – | – |
| ACAGACGAAGGAGCCGCAAAGAAGTTATTAAGTGTTGAATAATCCCTTAATATAAATATCTCTCACTTATTTAAA | 0.146 | – | – |
| ACAGACGAAGGAGCCGCAAAGAAGTTATTAAGTTATGAATAATCCCTCAATATAAATAACTCTCACTTATTTAAA | 0.117 | – | – |
| ACAGACGAAGGAGCCGCAAAGAAGTTATTAAGTTATGAATAATCCCTCAATATAAATATCTCTCACTTATTTAAA | 0.13 | 0.0915 | – |
| ACAGACGAAGGAGCCGCAAAGAAGTTATTAAGTTATGAATAATCCGTCAATATAAATATCTCTCACTTATTTAAA | – | 0.078 | – |
| ACAGACGAAGGAGCCGCAAAGAAGTTATTAATAGATGAATAATCCCTCAATATAAATATCTCTCACTTATTTAAA | 0.116 | 0.0972 | – |
| ACAGACGAAGGAGCCGCAAAGAAGTTATTAATAGATTAATAATCCCTCAATATAAATATCTCTCACTTATTTAAA | 0.135 | – | – |

| Sequence | cleaved RNA product abundance [1] | cleaved RNA product abundance [2] | cleaved RNA product abundance (experiment (reporter, strain, medium): exp 6: tetM reporter, strain 168) |
| --- | --- | --- | --- |
| ACAGACGAAGGAGCCGCAAAGAAGTTATTAATCGATGAATAATCCCTCAATATAAATATCTCTCACTTATTTAAA | 0.164 | – | – |
| ACAGACGAAGGAGCCGCAAAGAAGTTATTAATGAATGAATAAACCCTCAATATAAATATCTCTCACTTATTTAAA | 0.133 | – | – |
| ACAGACGAAGGAGCCGCAAAGAAGTTATTAATGAATGAATAATCCCTCAATATAAATATCTCTCACTTATTTAAA | 0.137 | 0.0941 | – |
| ACAGACGAAGGAGCCGCAAAGAAGTTATTAATGCATGAATAATCCCTCAATATAAATATCTCTCACTTATTTAAA | 0.0823 | 0.0867 | – |
| ACAGACGAAGGAGCCGCAAAGAAGTTATTAATGGAAGAATAATCCCTCAATATAAATATCTCTCACTTATTTAAA | 0.114 | 0.0884 | – |
| ACAGACGAAGGAGCCGCAAAGAAGTTATTAATGGACGAATAATCCCTCAATATAAATATCTCTCACTTATTTAAA | 0.0953 | 0.0737 | – |
| ACAGACGAAGGAGCCGCAAAGAAGTTATTAATGGATAAATAATCCCTCAATATAAATATCTCTCACTTATTTAAA | 0.116 | 0.102 | – |
| ACAGACGAAGGAGCCGCAAAGAAGTTATTAATGGATCAATAATCCCTCAATATAAATATCTCTCACTTATTTAAA | 0.127 | 0.0839 | – |
| ACAGACGAAGGAGCCGCAAAGAAGTTATTAATGGATGAAAAATCCCTCAATATAAATATCTCTCACTTATTTAAA | 0.166 | 0.111 | – |
| ACAGACGAAGGAGCCGCAAAGAAGTTATTAATGGATGAACAATCCCTCAATATAAATATCTCTCACTTATTTAAA | 0.143 | – | – |
| ACAGACGAAGGAGCCGCAAAGAAGTTATTAATGGATGAATAAACCCTCAATATAAATATCTCTCACTTATTTAAA | 0.107 | 0.0999 | – |
| ACAGACGAAGGAGCCGCAAAGAAGTTATTAATGGATGAATAACCCCTCAATATAAATATCTCTCACTTATTTAAA | 0.0925 | 0.0893 | – |
| ACAGACGAAGGAGCCGCAAAGAAGTTATTAATGGATGAATAAGCCCTCAATATAAATATCTCTCACTTATTTAAA | 0.107 | – | – |
| ACAGACGAAGGAGCCGCAAAGAAGTTATTAATGGATGAATAATACCTCAATATAAATATCTCTCACTTATTTAAA | 0.126 | 0.0824 | – |
| ACAGACGAAGGAGCCGCAAAGAAGTTATTAATGGATGAATAATCACTCAATATAAATATCTCTCACTTATTTAAA | 0.141 | 0.106 | – |
| ACAGACGAAGGAGCCGCAAAGAAGTTATTAATGGATGAATAATCACTTAATATAAATATCTCTCACTTATTTAAA | 0.194 | – | – |
| ACAGACGAAGGAGCCGCAAAGAAGTTATTAATGGATGAATAATCCATCAATATAAATATCTCTCACTTATTTAAA | 1.21 | 0.667 | – |
| ACAGACGAAGGAGCCGCAAAGAAGTTATTAATGGATGAATAATCCCACAATATAAATATCTCTCACTTATTTAAA | 0.156 | 0.0949 | – |
| ACAGACGAAGGAGCCGCAAAGAAGTTATTAATGGATGAATAATCCCCCAATATAAATATCTCTCACTTATTTAAA | 0.122 | 0.0983 | – |
